Assay results published in patent US7125850B2, “Methods of identifying inhibitors of GADD45 polypeptide activity, and inhibitors of such activity” (The United States of America as represented by the …, priority 1999, dated 2006).

B1: GADD45 Δ72–166: truncated rGADD45 containing the first 71 amino acid residues (protein, listed as Homo sapiens)
chain: MTLEEFSAGEQKTERMDKVGDALEEVLSKALSQRTITVGVYEAAKLLNVDPDNVVLCLLAADEDDDRDVAL
B2: rGADD45: full length recombinant human GADD45 polypeptide (SEQ ID NO:2), bacterially expressed, histidine tag removed (protein, listed as Rattus norvegicus)
chain: MTLEEFSAAEQKIERMDTVGDALEEVLSKARSQRTITVGVYEAAKLLNVDPDNVVLCLLAADEDDDRDVALQIHFTLIRAFCCENDINILRVSNPGRLAELLLLENDKSPAESGGLAQTPDLHCVLVTNPHSSQWKDPALSQLICFCRESRYMDQWVPVINLPER
modifications: rat growth arrest and DNA-damage-inducible protein (rGADD45)
B3: GADD45 Δ125–166: truncated rGADD45 containing the first 124 amino acid residues (protein, listed as Homo sapiens)
chain: MTLEEFSAGEQKTERMDKVGDALEEVLSKALSQRTITVGVYEAAKLLNVDPDNVVLCLLAADEDDDRDVALQIHFTLIQAFCCENDINILRVSNPGRLAELLLLETDAGPAASEGAEQPPDLHC
B4: NAP-1: negative control protein of similar size and charge as GADD45 (protein, UniProt P55209 2-388, looked up)
Nucleosome assembly protein …: ADIDNKEQSELDQDLDDVEEVEEEETGEETKLKARQLTVQMMQNPQILAALQERLDGLVETPTGYIESLPRVVKRRVNALKNLQVKCAQIEAKFYEEVHDLERKYAVLYQPLFDKRFEIINAIYEPTEEECEWKPDEEDEISEELKEKAKIEDEKKDEEKEDPKGIPEFWLTVFKNVDLLSDMVQEHDEPILKHLKDIKVKFSDAGQPMSFVLEFHFEPNEYFTNEVLTKTYRMRSEPDDSDPFSFDGPEIMGCTGCQIDWKKGKNVTLKTIKKKQKHKGRGTVRTVTKTVSNDSFFNFFAPPEVPESGDLDDDAEAILAADFEIGHFLRERIIPRSVLYFTGEAIEDDDDDYDEEGEEADEEGEEEGDEENDPDYDPKKDQNPAEC

What was measured:
cellular Cdc2 = target: T1, cellular Cdc2 (Homo sapiens, UniProt P06493); test: GST pull-down from RKO cell lysate, immunoblot for Cdc2; type: binding; settings: 100 ng protein, 1 mg RKO cellular protein
T1 construct: GST-GADD45 fusion protein were incubated with one mg of RKO cellular protein; endogenous in cells; host or cells: RKO (human colon carcinoma)
From the text: For these experiments, a recombinant glutathione-S-transferase (GST)/GADD45 fusion protein was constructed. The GADD45 insert was PCR amplified from pHul45B2 using the following primers: (SEQ ID NO:3) 5′[…] 3′ and (SEQ ID NO:4) 5′[…] 3′. Products were cloned into a pcrII vector using the TA cloning kit (Invitrogen, San Diego, Calif.). A representative clone was confirmed by sequencing. The selected insert was removed by XhoI and NotI digestion, gel purified using the Wizard DNA Purification Kit (Promega, Madison, Wis.), and ligated into the XhoI/ NotI digested pGEX4T vector (Pharmacia, Piscataway, N.J.). GST-GADD45 fusion protein induction was prepared from freshly transformed BL21 bacterial cells (Novagen). 150 ml of overnight culture was diluted into 1L of LB with ampicillin and grown at 37° C. to late growth phase (OD600 was approximately 0.8). […]
To detect binding of cellular Cdc2 to GST-tagged GADD45, 100 ng of GST or GST-GADD45 fusion protein were incubated with one mg of RKO cellular protein for 4 hr at […]. […] Antibody was detected by a chemiluminescence system in accordance with the instructions of the manufacturer (Amersham, Buckinghamshire, England)
GST-GADD45 fusion protein or GST alone, which were linked to Sepharose beads, were incubated with cellular lysates, isolated, and analyzed by immunoblotting, as described above.

Cdc2/Cyclin B1 complex [1] = target: T2, Cdc2/Cyclin B1 complex (Homo sapiens, UniProt P06493); test: Histone H1 kinase assay with purified Cdc2-Cyclin B1 complexes; type: biochemical; parameters: purchased Upstate Biotechnology, Lake Placid, N.Y; settings: for inhibition of histone H1 kinase activity of purified Cdc2/Cyclin B1 complex: 100 ng complex, varying amounts of protein up to 500 ng
Description: In one experiment, 100 ng purified Cdc2-cyclin B1 complexes (Upstate Biotechnology, Lake Placid, N.Y.) were incubated with varying amounts of full length rGADD45 or negative control (NAP 1, Tjandra (1998) Curr. Biol. 8:991–1000; Fujii-Nakata (1992) J. Biol. Chem. 267:20980–20986) polypeptides. For full length rGADD45: 0, 10, 20, 50, 100, 200, and 500 ng were used. For the control (NAP1): 0, 100, 200, and 500 ng were used.
Histone H1 kinase assays were then performed. Briefly, purified Cdc2-Cyclin B1 complexes (Upstate Biotechnology, Lake Placid, N.Y.) were incubated with the indicated amounts of rGADD45 or NAP1 proteins for 5 minutes. Histone H1 kinase assays were then performed in the presence of […] of histone H1 (Upstate, Lake Placid, N.Y.), 15 mM MgCl2, 7 mM β-glycerol phosphate, 1.5 mM EGTA, 0.25 mM sodium orthvanadate, 0.25 mM DTT and […] of [g-32P]ATP in 25 μl. After 15 min at 37° C., the reactions were mixed with an equal amount of standard 2× SDS protein denaturation loading buffer, size-separated on a 12% SDS-PAGE gel, and analyzed by autoradiography.
rGADD45 proteins were prepared as described by Carrier (1994) supra. The rGADD45 proteins that were manufactured included, in addition to the full-length polypeptide, truncated forms containing the first 124 amino acid residues (designated “GADD45 Δ125–166”) or the first 71 amino acid residues (designated “GADD45 Δ72–166”) (see sequence and residue notation of SEQ ID NO:2).
For the histone assays comparing the inhibitory activity of full length and truncated GADD45 constructs, instead of loading samples onto the gel for electrophoretic analysis, […] aliquots were spotted on phosphocellulose paper and then washed three times with 0.75% phosphoric acid. After an acetone rinse, the radioactivity was measured by scintillation counting. The results are the average of three separate experiments.
Target sequence in this assay (P06493 whole entry, species assumed, one chain of several): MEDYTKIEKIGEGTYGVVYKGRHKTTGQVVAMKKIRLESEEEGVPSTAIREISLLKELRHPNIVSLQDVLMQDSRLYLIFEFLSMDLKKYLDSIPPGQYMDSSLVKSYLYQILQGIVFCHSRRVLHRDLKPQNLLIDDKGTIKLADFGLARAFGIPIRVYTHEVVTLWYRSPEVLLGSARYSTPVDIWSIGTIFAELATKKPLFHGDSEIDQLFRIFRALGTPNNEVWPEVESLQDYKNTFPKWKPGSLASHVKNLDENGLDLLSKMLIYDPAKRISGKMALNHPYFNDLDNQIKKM

Cdc2/Cyclin B1 complexes = target: T3, Cdc2/Cyclin B1 complexes (Homo sapiens, UniProt P06493); test: ELISA binding of rGADD45 proteins to purified Cdc2/Cyclin B1; settings: 40 ng protein; for binding to Cdc2/Cyclin B1 in ELISA: 100 ng complex coated
T3 construct: purchased Upstate Biotechnology, Lake Placid, N.Y
Description: Immulon II immunoabsorption plates (Dynatech) were coated with 100 ng of Cdc2/Cyclin B1 complexes (Upstate Biotechnology, Lake Placid, N.Y.) in PBS and incubated overnight at 4° C. After rinsing with PBST (PBS with 0.05% Tween-20) and blocking in 5% nonfat milk in PBST, 40 ng of either full length or truncated (both deletion constructs, as described above) rGADD45 protein were added. Following incubation for one hour at room temperature, the plates were washed and an anti-GADD45 antibody (Zymed, San Francisco, Calif.) was added at a 1:1000 dilution in PBST with 0.5% milk (PBSTM). After 1 hr at 25° C., the plates were washed, and HRP-anti-rabbit antibody diluted at 1:1000 in PBS™ was added before final washes and development using the 1-step TMB Solution (Pierce, Rockford, Ill.). Development was halted by the addition of 50 μl of 1M H2SO4, and optical density was measured using a platereader.

Cdc2/Cyclin B1 complex [2] = target: T2, Cdc2/Cyclin B1 complex; test: Wash off assay: dissociation of immunoprecipitated Cdc2/Cyclin B1 complexes; type: biochemical; parameters: One mg of cellular protein was immunoprecipitated with anti-Cyclin B1 antibody and protein A agarose beads; endogenous in cells; host or cells: RKO (human colon carcinoma); settings: 0-500 ng protein, 15 min at 25 C
Description: Since GADD45 inhibited Cdc2/Cyclin B1 activity, but only associated with Cdc2, the possibility was considered that GADD45 acts by dissociating this complex. To test this, anti-Cyclin B1 antibody was used to precipitate cellular Cdc2/cyclin B1 complexes (as above). A “wash off assay” was then carried out in the presence of GADD45. Briefly, RKO cellular protein was immunoprecipitated with anti-Cyclin B1 antibody. The immunoprecipitates were washed 3 times with lysis buffer and twice with 10 mM Tris-HCl (pH 7.5), 10 mM Mg Cl2. Samples were then suspended in […] of 10 mM Tris-HCl (pH 7.5), 10 mM MgCl2. Various amounts of rGADD45 (0, 50, 100, 200, 500 ng) or NAP1 (0, 200, 500 ng) was added to the Cdc2/Cyclin B1 immunocomplexes and incubated for 15 min at 25° C. Following incubation, immunoprecipitates were washed twice with lysis buffer, loaded onto SDS-PAGE gel for electrophoresis, and the membrane was immunoblotted with monoclonal Cdc2 antibody for the detection of Cdc2 protein. Prior to the final immunoprecipitation, an aliquot of the solution was analyzed by immunoblotting with an anti-Cyclin B1 antibody to confirm uniform loading. […] To confirm uniform levels of Cyclin B1, the amount of Cyclin B1 was measured by immunoblotting.
Target sequence in this assay (P06493 whole entry, one chain of several): as the sequence (P06493 whole entry, species assumed, one chain of several) above

Cdc2/Cyclin B1 complex [3] = target: T2, Cdc2/Cyclin B1 complex; test: Histone H1 kinase assay with Cdc2/cyclin B1 complex immunoprecipitated from RKO cell lysate; type: biochemical; parameters: One mg of cellular protein was immunoprecipitated with anti-Cyclin B1 antibody and protein A agarose beads; endogenous in cells; host or cells: RKO (human colon carcinoma); settings: RKO lysate immunoprecipitate
Description: A monoclonal antibody against cyclin B1 was next used to immunoprecipitate Cdc2/cyclin B1 complex from a lysate of human cells. Antibodies against human Cdc2, c-Myc, and NAP-1 were obtained from Santa Cruz Biotechnology, Santa Cruz, Calif. […] The human colon carcinoma line RKO was grown in modified Ham's F12 medium supplemented with 10% fetal bovine serum.
For immunoprecipitation, exponentially growing RKO cells were lysed on ice for 30 min in lysis buffer consisting of 50 mM Tris-HCl (pH 7.5), 120 mM NaCl, 1% NP-40, […], […] and […] of phenylmethylsulfony fluoride. One mg of cellular protein was immunoprecipitated with anti-Cyclin B1 antibody and protein A agarose beads for 4 hr at 4° C. The immunoprecipitates were washed three times with lysis buffer and then loaded onto a SDS-PAGE gel for immunoblot analysis. The presence of Cdc2/Cyclin B1 was confirmed by immunoblotting.
In contrast, rGADD45 had no effect on Cdk2/Cyclin E histone H1 kinase activity. […]
Target sequence in this assay (P06493 whole entry, one chain of several): as the sequence (P06493 whole entry, species assumed, one chain of several) above

Cdk2/Cyclin E = Cdk2/Cyclin E (Homo sapiens, UniProt P24941); test: Cdk2/Cyclin E histone H1 kinase assay; type: biochemical; settings: up to 3600 ng of full length rGADD45

T3 sequence (P06493 whole entry, species assumed, one chain of several): as above
T1 sequence (P06493 whole entry, the tested form may be a part): as the sequence (P06493 whole entry, species assumed, one chain of several) above

| Molecule | inhibition of histone H1 kinase activity of purified Cdc2/Cyclin B1 complex (Cdc2/Cyclin B1 complex [1]) | binding to Cdc2/Cyclin B1 in ELISA (Cdc2/Cyclin B1 complexes) | Cdc2 level remaining in Cyclin B1 immune complexes (dissociation of complex) (Cdc2/Cyclin B1 complex [2]) | other results |
| --- | --- | --- | --- | --- |
| GST: glutathione-S-transferase alone, linked to Sepharose beads, control [reference compound] | – | – | – | association with cellular Cdc2 (cellular Cdc2): no Cdc2 was detected |
| B1 | failed to inhibit | No appreciable binding | – | – |
| B2 | strongly inhibited | significant binding over background level | did reduce the Cdc2 level | Cdc2/Cyclin B1 histone kinase activity, % of control (Cdc2/Cyclin B1 complex [1]; 50 ng protein): less than 40%; inhibition of histone phosphorylation by Cdc2/Cyclin B1 (Cdc2/Cyclin B1 complex [1]; larger amounts than 50 ng): strong inhibition; inhibition of enzymatic activity of isolated (immunoprecipitated) Cdc2/cyclin B1 complex (Cdc2/Cyclin B1 complex [3]): progressive inhibition; effect on Cdk2/Cyclin E histone H1 kinase activity (Cdk2/Cyclin E): no effect |
| B3 | able to inhibit | significant binding over background level | – | binding relative to full-length rGADD45 protein (Cdc2/Cyclin B1 complexes): 77% |
| B4 | no appreciable effect | – | no effect | – |
